In US20260250421A1 (BIOCYTOGEN PHARMACEUTICALS BEIJING, published 2026):
Changes are numbered by the printed parent chain.

T1: His-tagged human PTK7 protein (human, UniProt Q13308 31-704)
T1 construct: Bought protein; also called hPTK7-His; not shown: His tag
T1 sequence: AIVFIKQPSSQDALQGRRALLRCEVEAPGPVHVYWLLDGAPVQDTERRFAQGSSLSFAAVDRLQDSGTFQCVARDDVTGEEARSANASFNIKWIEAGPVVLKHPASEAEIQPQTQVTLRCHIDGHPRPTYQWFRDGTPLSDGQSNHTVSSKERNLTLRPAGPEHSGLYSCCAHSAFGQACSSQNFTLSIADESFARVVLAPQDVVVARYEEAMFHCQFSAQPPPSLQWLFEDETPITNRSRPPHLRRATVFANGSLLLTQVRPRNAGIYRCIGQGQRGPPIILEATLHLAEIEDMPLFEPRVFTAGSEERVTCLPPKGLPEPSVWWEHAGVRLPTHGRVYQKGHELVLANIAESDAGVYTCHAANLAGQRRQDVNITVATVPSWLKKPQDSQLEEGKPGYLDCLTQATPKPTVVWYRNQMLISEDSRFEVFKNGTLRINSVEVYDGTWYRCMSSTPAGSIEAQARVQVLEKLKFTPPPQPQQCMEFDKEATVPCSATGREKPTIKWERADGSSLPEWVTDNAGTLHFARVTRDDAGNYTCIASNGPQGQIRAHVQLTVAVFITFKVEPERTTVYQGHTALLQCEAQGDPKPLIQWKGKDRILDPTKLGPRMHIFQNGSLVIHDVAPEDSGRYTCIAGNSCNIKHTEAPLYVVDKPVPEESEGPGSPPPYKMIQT

T2: human PTK7 on human cancer cell lines (human, UniProt Q13308 31-1070)
T2 construct: Endogenous PTK7 of human tumour cell lines; also called PTK7 on A-431, NCI-H520, NCI-N87, SK-OV-3, BT-20, HCC1954, NCI-H226, NCI-H358, HCT116, PC-3, NCI-H292, NCI-H1975 cells
T2 sequence: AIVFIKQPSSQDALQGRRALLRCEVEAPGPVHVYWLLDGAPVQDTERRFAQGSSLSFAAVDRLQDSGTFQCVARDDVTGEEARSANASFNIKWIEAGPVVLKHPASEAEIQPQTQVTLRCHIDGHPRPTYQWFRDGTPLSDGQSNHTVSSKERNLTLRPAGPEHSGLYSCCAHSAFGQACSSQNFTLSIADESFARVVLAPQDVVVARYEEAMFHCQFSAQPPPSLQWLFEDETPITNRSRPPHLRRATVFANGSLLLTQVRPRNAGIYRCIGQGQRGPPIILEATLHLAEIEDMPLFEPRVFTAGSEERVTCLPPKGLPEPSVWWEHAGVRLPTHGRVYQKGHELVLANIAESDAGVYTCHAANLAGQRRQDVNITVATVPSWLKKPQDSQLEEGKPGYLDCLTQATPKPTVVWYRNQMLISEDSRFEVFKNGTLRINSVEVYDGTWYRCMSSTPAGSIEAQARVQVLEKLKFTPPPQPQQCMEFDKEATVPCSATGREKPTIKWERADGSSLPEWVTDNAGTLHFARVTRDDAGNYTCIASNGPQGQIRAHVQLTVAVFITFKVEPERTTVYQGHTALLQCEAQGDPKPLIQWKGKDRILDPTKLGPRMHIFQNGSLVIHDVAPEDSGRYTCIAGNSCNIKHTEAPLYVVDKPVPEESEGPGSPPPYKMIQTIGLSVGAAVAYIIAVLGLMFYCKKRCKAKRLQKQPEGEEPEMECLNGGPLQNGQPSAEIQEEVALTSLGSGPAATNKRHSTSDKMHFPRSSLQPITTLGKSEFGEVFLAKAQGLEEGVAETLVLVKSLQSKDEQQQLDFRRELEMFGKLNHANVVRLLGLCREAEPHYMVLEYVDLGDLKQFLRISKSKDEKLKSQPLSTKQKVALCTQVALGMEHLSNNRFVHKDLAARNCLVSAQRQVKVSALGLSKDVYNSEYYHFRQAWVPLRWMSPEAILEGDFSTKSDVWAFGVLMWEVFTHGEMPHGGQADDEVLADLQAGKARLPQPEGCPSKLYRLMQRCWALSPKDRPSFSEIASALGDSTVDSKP

B1: 1A7 (antibody, human IgG1, V domains shown)
VH: QVQLVESGGGVVQPGRSLRLSCAASGFTFSNYGMHWVRQAPGKGLEWVAVIYYDGSNKFYADSVKGRFTISRDNSKNTLYLQMSSLRAEDTAVYYCARDVAPPGSRAEYFHHWGQGTLVTVSS
VL: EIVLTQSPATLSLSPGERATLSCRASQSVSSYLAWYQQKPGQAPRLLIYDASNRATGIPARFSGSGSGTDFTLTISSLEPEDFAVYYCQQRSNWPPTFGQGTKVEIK
notes: also called anti-PTK7 antibody 1A7
B2: 2D11 (antibody, V domains shown)
VH: B1 VH with N31S, Y52F, F59Y, S84N, A92S, P102A, H111Q, H112N
VL: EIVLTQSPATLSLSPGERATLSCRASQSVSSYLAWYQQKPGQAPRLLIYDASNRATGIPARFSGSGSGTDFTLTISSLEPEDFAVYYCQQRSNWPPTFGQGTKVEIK
notes: also called anti-PTK7 antibody 2D11
B3: 2A5 (antibody, V domains shown)
VH: B1 VH with E6Q, Y52W, S56R, F59Y, S84N, P103A, H111Q, H112N
VL: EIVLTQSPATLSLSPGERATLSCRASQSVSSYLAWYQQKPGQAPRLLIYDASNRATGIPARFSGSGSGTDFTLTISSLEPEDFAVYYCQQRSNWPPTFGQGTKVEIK
notes: also called anti-PTK7 antibody 2A5
B4: 2F5 (antibody, V domains shown)
VH: B1 VH with A23V, V50I, F59Y, S84N, P102A, P103A, F110L
VL: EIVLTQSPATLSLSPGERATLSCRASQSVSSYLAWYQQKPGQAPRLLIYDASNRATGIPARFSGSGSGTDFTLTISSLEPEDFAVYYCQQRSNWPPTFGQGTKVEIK
notes: also called anti-PTK7 antibody 2F5
B5: 1A11 (antibody, V domains shown)
VH: QVQLVQSGPGLVKPSETLSLTCTVSGGSINSYYWNWIRQPPGKGLEWIGYIYYSGSTNYNPSLKSRVTISVDTSKNQFSLKLSSVTAADTAVYYCARDPHDYIRGHFDLWGRGTLFTVSS
VL: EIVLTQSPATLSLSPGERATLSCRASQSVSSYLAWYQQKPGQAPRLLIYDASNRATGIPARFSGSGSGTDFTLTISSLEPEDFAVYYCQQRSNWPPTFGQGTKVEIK
notes: also called anti-PTK7 antibody 1A11
B6: 3C4 (antibody, V domains shown)
VH: QVQLEQSRAEVKKPGESLRISCKGSGYSFTSYWISWVRQMPGKGLEWMGRIDPSDSYTNYNPSFQGHVTISADKSISTAYLQWSSLKASDTAMYYCARRDGSYFDFDYWGQGTLVTVSS
VL: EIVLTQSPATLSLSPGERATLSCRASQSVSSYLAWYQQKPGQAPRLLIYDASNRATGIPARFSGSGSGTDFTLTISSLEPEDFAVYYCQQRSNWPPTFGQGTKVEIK
notes: also called anti-PTK7 antibody 3C4
B7: 3E6 (antibody, V domains shown)
VH: B6 VH with E5V, Q6E, R8G, K23R, N59K, N61S, S102D
VL: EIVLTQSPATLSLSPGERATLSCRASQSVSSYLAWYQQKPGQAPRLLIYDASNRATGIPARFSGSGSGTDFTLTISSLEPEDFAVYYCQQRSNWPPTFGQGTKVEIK
notes: also called anti-PTK7 antibody 3E6
B8: 1F2 (antibody, V domains shown)
VH: QVQLVQSGGGLVQPGGSLRLSCAASGFTFSRYEMNWVRQAPGKGLEWVSYINSIGSAINYADSVKGRFTISRDNAKNSLYLQMRSLRAEDTAVYYCVREDNWNPGYWGQGTLVTVSS
VL: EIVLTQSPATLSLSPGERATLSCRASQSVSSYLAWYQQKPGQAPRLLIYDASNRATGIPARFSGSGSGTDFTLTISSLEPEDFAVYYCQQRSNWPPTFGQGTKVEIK
notes: also called anti-PTK7 antibody 1F2

molecular target: T1, His-tagged human PTK7 protein; experiment: BLI Octet binning on hPTK7-His; competitor 2F5
Protocol: (§1) Relative positions of target protein epitope between a pair of purified anti-PTK7 antibodies were analyzed by Biolayer Interferometry (BLI) using ForteBio Octet system at 30° C. A total of […] purified antibodies were used: 1A7, 1A11, 1F2, 2A5, 2D11, 2F5, 3C4 and 3E6.
(§2) 1×HBS-EP+ buffer (10 mM 4-(2-hydroxyethyl)-1-piperazineethanesulfonic acid (HEPES), 150 mM NaCl, 3 mM ethylenediaminetetraacetic acid (EDTA) and 0.05% P20, pH7.4) diluted from HBS-EP+ buffer (10×) was used as the running buffer throughout the experiment. His-tagged human PTK7 protein was captured at a flow rate of 10 μL/min, and 200 nM of antibody (Analyte 1) was injected at a flow rate of 30 μL/min to bind the ligand. Another antibody (Analyte 2) was injected under the same conditions to determine whether the binding of different antibodies interfered with each other. The binding time was 300 s for each antibody.
(§3) The binding value of each antibody was obtained using Data Analysis HT 12.0. To quantify the interference of one antibody binding to another, a binding ratio was calculated to compare each pair of antibodies. The binding ratio is defined as the binding value of the second antibody (Analyte 2), divided by the binding value of the first antibody (Analyte 1). […] In general, antibody pairs that interfere with each other have the same or overlapping epitopes.

| binding ratio | Binder |
| --- | --- |
| 0.07 | B1 |
| 0.14 | B2 |
| -0.02 | B3 |
| 0.08 | B4 |
| 0.67 | B5 |
| 0.86 | B6 |
| 0.71 | B7 |
| 0.56 | B8 |

molecular target: T1, His-tagged human PTK7 protein; experiment: BLI Octet binning on hPTK7-His; competitor hu24 analog
Protocol: as §1, §2, §3

| binding ratio | Binder |
| --- | --- |
| 0.2 | B1 |
| 0.21 | B2 |
| 0.04 | B3 |
| 0.19 | B4 |
| 0.97 | B5 |
| 1.22 | B6 |
| 0.98 | B7 |
| 0.95 | B8 |

molecular target: T2, human PTK7 on human cancer cell lines; experiment: flow cytometry, HCT116 cells, Ab 5 ug/mL
Protocol: (§4) The binding activity of anti-PTK7 antibodies to cancer cell lines was verified by flow cytometry. […] Purified anti-PTK7 antibody with a concentration of 5 μg/mL was added to each well and was incubated at 4° C. for 30 minutes. […] The cells were collected, and the mean fluorescence intensity (MFI) was determined. Human IgG1 was used as ISO control.

| MFI | Binder |
| --- | --- |
| 115000 | B1 |
| 287000 | B2 |
| 234000 | B3 |
| 133000 | B4 |
| 260000 | B5 |
| 230000 | B6 |
| 339000 | B7 |
| 149000 | B8 |

molecular target: T2, human PTK7 on human cancer cell lines; experiment: flow cytometry, NCI-H358 cells, Ab 5 ug/mL
Protocol: as §4

| MFI | Binder |
| --- | --- |
| 52900 | B1 |
| 103000 | B2 |
| 87700 | B3 |
| 51900 | B4 |
| 89400 | B5 |
| 98800 | B6 |
| 117000 | B7 |
| 33900 | B8 |
